Measured values taken from EP4596582A1 (Sichuan Kelun-Biotech Biopharmaceutical Co., Ltd., dated 2025).

How the values were obtained:
[1] = target: T1, human B7-H3 on human tumor cells (MCF-7, HT29, NCI-N87, HCC1806, HCC827) (human, UniProt Q5ZPR3 29-534); assay: flow cytometry on HCC1806 cells
T1 construct: whole, on cells
T1 sequence (looked up): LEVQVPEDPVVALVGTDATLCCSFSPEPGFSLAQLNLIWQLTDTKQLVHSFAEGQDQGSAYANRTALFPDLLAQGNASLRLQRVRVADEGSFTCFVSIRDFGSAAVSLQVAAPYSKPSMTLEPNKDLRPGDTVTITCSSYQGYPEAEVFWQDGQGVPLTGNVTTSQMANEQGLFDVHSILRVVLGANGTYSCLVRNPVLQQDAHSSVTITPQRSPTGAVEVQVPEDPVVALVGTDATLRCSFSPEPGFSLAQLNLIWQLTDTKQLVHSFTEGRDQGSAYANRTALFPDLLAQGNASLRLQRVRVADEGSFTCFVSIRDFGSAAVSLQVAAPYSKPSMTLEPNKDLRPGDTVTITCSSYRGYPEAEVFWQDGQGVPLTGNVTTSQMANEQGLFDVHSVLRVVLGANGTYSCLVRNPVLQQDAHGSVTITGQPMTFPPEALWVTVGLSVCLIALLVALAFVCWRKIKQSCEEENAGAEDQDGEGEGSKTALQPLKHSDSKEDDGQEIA

[2] = target: T1, human B7-H3 on human tumor cells …; assay: cell-based or functional assay
[3] = target: T2, human B7-H3-4Ig-His protein (human, UniProt Q5ZPR3 29-466); assay: BLI (ForteBio), antibody captured on Protein A sensor, 1:1 global fit
T2 construct: extracellular domain; Made in HEK293-EBNA cells
T2 sequence: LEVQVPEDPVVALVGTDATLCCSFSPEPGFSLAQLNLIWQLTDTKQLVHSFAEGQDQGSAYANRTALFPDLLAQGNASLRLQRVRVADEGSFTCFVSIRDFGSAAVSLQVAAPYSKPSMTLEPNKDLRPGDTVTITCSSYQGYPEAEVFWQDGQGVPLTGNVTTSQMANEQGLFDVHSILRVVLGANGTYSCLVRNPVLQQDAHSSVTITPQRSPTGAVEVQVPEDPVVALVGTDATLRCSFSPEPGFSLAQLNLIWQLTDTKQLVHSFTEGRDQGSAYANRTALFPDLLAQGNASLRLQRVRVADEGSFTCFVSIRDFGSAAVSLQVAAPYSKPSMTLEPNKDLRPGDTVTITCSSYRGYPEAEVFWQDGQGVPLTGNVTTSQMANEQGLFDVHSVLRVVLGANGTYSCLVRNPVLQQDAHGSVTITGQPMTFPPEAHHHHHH

[4] = target: T3, monkey B7-H3-4Ig-His protein (monkey); assay: as above
T3 chain: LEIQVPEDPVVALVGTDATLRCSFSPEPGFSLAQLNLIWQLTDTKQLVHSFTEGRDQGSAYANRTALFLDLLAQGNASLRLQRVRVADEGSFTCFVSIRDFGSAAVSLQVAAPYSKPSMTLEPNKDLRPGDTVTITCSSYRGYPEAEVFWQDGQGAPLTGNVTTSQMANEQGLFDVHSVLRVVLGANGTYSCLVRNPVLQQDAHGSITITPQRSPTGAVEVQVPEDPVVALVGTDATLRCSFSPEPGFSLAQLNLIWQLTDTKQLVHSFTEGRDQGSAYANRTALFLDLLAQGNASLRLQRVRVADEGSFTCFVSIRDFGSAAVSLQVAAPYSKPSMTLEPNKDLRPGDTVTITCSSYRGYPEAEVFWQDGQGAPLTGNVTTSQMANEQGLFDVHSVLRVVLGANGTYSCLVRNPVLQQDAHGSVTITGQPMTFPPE

[5] = target: T4, human B7-H3-2Ig-His protein (human); assay: as above
T4 chain: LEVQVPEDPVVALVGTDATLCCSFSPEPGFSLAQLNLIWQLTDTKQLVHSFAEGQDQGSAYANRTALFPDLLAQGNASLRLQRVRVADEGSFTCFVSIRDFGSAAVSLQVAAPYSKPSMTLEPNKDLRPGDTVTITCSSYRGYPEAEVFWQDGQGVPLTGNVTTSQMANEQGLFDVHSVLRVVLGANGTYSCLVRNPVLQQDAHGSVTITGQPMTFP

[6] = target: T1, human B7-H3 on human tumor cells …; assay: flow cytometry on NCI-N87 cells
[7] = target: T1, human B7-H3 on human tumor cells …; assay: flow cytometry on HCC827 cells
[8] = target: T5, rat B7-H3 on CHO-S cells (CHO-S-rat B7-H3) (rat, UniProt Q7TPB4 29-316); assay: flow cytometry on CHO-S-rat B7-H3 cells
T5 construct: whole, on cells; also called rat B7-H3-overexpressed cells
T5 sequence (looked up): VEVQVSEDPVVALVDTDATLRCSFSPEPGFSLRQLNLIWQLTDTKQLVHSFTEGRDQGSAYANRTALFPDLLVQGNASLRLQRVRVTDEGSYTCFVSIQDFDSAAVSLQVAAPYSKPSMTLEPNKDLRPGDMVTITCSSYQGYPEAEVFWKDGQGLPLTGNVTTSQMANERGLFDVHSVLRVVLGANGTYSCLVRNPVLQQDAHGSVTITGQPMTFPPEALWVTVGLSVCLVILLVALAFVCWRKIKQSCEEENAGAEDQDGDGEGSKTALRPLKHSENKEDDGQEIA

[9] = target: T2, human B7-H3-4Ig-His protein; assay: ELISA, antigen coated at 1 ug/ml (specificity panel)
[10] = target: T6, monkey B7-H3 on CHO-S cells (CHO-S-monkey B7-H3) (monkey); assay: flow cytometry on CHO-S-monkey B7-H3 cells
T6 construct: whole, on cells; also called monkey B7-H3-overexpressed cells

B1: anti-human-B7-H3 human antibody 2#8890 (antibody, human IgG1, kappa, V domains shown)
VH: QVQLQESGPGLVQPSGTLSLTCAVSGGSDSSTNWWTWVRQSPGQGLEWIGEISPIGFTSYSPSLRSRVTISVDKSKTQFSLKLSSVTAADTAVYYCARDRLYFAFWGQGTLVTVSS
VL: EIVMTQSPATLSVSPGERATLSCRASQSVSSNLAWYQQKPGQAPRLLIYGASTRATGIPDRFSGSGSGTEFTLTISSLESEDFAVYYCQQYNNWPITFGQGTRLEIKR
[1]
  EC50: 9.67 ng/mL
[2]
  Endocytosis EC50 on HCC827 cells (PHrodo, flow cytometry): 10.2 ng/mL
  Endocytosis EC50 on HCC1806 cells (PHrodo, flow cytometry): 20.6 ng/mL
  Endocytosis EC50 on NCI-N87 cells (PHrodo, flow cytometry): 12.2 ng/mL
[3]
  Kd: 0.783 nM
[4]
  Kd: 1.24 nM
[5]
  Kd: 18.3 nM
[6]
  EC50: 5.77 ng/mL
[7]
  EC50: 0.0123 µg/mL
[8]
  binding result: no binding (tested: 10 ug/ml highest concentration)
[9]
  EC50: 1.93 ng/mL
[10]
  EC50: 0.0649 µg/mL
